The text below walks through data of patent US10429300B2, “Surface plasmon resonance approach to monitor protein-ligand interactions” (The Johns Hopkins University, priority 2015, dated 2019).

Assay [1] deals with T1, rNav1.2a VSD II paddle peptide (V843A, SEQ ID NO: 2) (Rattus norvegicus, UniProt P04775, V843A).
T1 construct: purchased ProteoGenix; host or cells: chemical synthesis (Fmoc solid phase)
T1 sequence (P04775 832-856 V843A): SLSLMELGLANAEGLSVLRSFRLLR
As to the kind of experiment: SPR on immobilized rNav1.2a VSD II paddle peptide. Format: binding. The note with it: for SPR binding to VSD II paddle peptide: 100 nM toxin, 500 fmol peptide. As for the experimental part: SPR experiments were performed at 25° C. on a Biacore™ T200 instrument (GE Healthcare) using 150 mM NaCl, 3 mM EDTA, 0.005% surfactant P20, and 10 mM HEPES-NaOH, pH 7.4, for the coupling protocol or 50 mM phosphate, pH 7.2, as running buffer. Neutravidin (Thermo Fisher Scientific) was immobilized on CM5 sensor chips (GE Healthcare) using an amine coupling chemistry. All chemicals were obtained from Sigma-Aldrich. […] In all SPR experiments, nonspecific binding obtained in the control flow cell was subtracted from the signal obtained in the experimental flow cell. For qualitative binding analysis, toxins (100 nM in running buffer containing 0.1% BSA) were injected at a flow rate of 20 μl/min over 2 min. […] In between injections, the surface of the sensor chip was regenerated by injecting 1 M NaCl (15 s at 30 l/min). The bulk signal caused by refractive index differences between the flow buffer and the buffer containing the analyte was systematically excluded from the data-fitting process. It is worth noting that isolating a paddle motif (ligand) can induce conformational changes that can affect toxin (analyte) efficacy. […] Sensorgrams can reveal such ligand heterogeneity by displaying biphasic dissociation curves that cannot be fitted with the frequently used Langmuir model, which assumes a 1:1 stoichiometry of analyte to ligand. To account for a possible heterogeneity of surface sites, we calculated the rate constants and affinity equilibrium dissociation constants (KD) for AaHII by a fit to a heterogeneous ligand model incorporated into the Biacore T200 Evaluation™ software (v1.0). This model assumes the presence of two sites on the ligand that can bind analyte and can be described by these equations in which A represents the analyte and B1/B2 represents the heterogeneous ligand:
(A) Shown are the CD spectra of the rNav1.2a VSD II and IV paddle peptides used in this paper. […] (B) Representative association and dissociation kinetic curves obtained using SPR after the application of varying concentrations of AaHII (15-2,000 nM) over a sensor chip to which 50 fmol of the rNav1.2a VSD IV paddle peptide was linked. Toxin was applied after obtaining a steady baseline. Colored traces represent toxin binding obtained after subtraction of the signal from the control flow cell. […] Toxin concentrations are indicated on the right in a shade of gray corresponding to the sensorgram. (C) Representative SPR traces after the application of 100 nM KTX, AaHI, AaHII, LqqV, BomIV, TsVII, and CssIV over a sensor chip to which the rNav1.2a VSD II (left) or IV (right) paddle peptide (500 fmol) was linked. Toxin was applied after obtaining a steady baseline. (D) Binding capacities of 100 nM α-scorpion toxins AaHI, AaHII, LqqV, the α-like scorpion toxin BomIV, and the β-scorpion toxins TsVII and CssIV to the VSD II and IV paddle motifs using SPR (error bars represent±SEM). Y-axis represents the maximum RUs obtained after toxin application.
Next, the VSD IV peptide was fixed on SPR sensor chips by adding a K-linked biotin group to the C terminus, resulting in a 32-amino acid peptide altogether (SEQ ID NO: 4 which is mutated SEQ ID NO: 3 of FIG. 2A).
For orientation: SPR reads the build-up and loss of mass on a sensor chip optically.

Assay [2] concerns the target T2, rNav1.2a VSD IV paddle peptide (R1629A/L1630A, SEQ ID NO: 4) (Rattus norvegicus, UniProt P04775, L1630A/R1629A).
T2 construct: purchased ProteoGenix; host or cells: chemical synthesis (Fmoc solid phase)
T2 sequence (P04775 1605-1636 R1629A/L1630A): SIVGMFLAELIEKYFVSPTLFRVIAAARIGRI
As to the kind of experiment: SPR on immobilized rNav1.2a VSD IV paddle peptide. The assay is classed as binding.

In the next assay the test system is rNav1.2a. The note with it: cited from earlier work.
The test system of assay [3] is rNav1.2a/Kv2.1 VSD IV chimera containing the R1629A/L1630A substitutions. Format: cell-based, rat.
Excerpt: The DNA sequence of rat (r)Nav1.2a (provided by A. Goldin, University of California, Irvine, Irvine, Calif.), rKv2.1 (provided by K. J. Swartz, National Institutes of Health), and the rNav1.2a/Kv2.1 VSD II or IV chimera was confirmed by automated DNA sequencing, and cRNA was synthesized using T7 polymerase (mMessage mMachine™ kit; Life Technologies) after linearizing the DNA with appropriate restriction enzymes. Channels were expressed in Xenopus oocytes (obtained from Xenopus 1) and studied after a 1-d incubation after cRNA injection (incubated at 17° C. in 96 mM NaCl, 2 mM KCl, 5 mM HEPES, 1 mM MgCl2, 1.8 mM CaCl2, and 50 μg/ml gentamycin, pH 7.6 with NaOH) using two-electrode voltage-clamp recording techniques (OC-725C; Warner Instruments) with a 150-μl recording chamber. Data were filtered at 4 kHz and digitized at 20 kHz using pClamp™ 10 software (Molecular Devices). […] For all channels, voltage-activation relationships were recorded in the absence and presence of toxin. The ratio of currents (I/I0) recorded in the presence (I) and absence (I0) of toxin was calculated for voltages typically ranging from −140 to 10 cmV, depending on the construct. […] The apparent equilibrium dissociation constant (apparent KD) for Kv channels was calculated according to KD=((1/(1c−cFu^1/4))c−c1)[toxin], assuming four independent toxin-binding sites per channel. […]
Assay [4] addresses rNav1.2a/Kv2.1 VSD IV paddle chimera. The conditions noted are these: WT chimera; read-out: apparent KD, WT chimera (previously shown); cited from earlier work.
In assay [5] the target is rNav1.2a/Kv2.1 VSD IV chimera R1629A. The conditions noted are these: R1629A substitution; read-out: apparent KD; cited from earlier work.
The target of assay [6] is rNav1.2a/Kv2.1 VSD IV chimera L1630A. The note with it: L1630A substitution; read-out: apparent KD; cited from earlier work.
Setting [7] is: heterogeneous ligand model, 15-2,000 nM toxin, 50 fmol peptide, n=3, mean±SD.
Setting [8] is: heterogeneous ligand model, 50 fmol peptide.
The mark [9] stands for this setting: heterogeneous ligand model, 50 fmol peptide, n=3, mean±SD.

Sequence of rNav1.2a/Kv2.1 VSD IV paddle chimera (P04775 1605-1636 limits assumed, stated change not applied): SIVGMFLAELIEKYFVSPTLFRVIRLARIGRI
Sequence of rNav1.2a/Kv2.1 VSD IV chimera L1630A (P04775 1605-1636 L1630A limits assumed): as the sequence (P04775 1605-1636 limits assumed, stated change not applied) above, with L26A counted along it
Sequence of rNav1.2a/Kv2.1 VSD IV chimera R1629A (P04775 1605-1636 R1629A limits assumed): as the sequence (P04775 1605-1636 limits assumed, stated change not applied) above, with R25A counted along it

B1: CssIV: β-scorpion toxin from Centruroides suffusus suffusus (protein)
chain: KEGYLVNSYTGCKFECFKLGDNDYCLRECRQQYGKGSGGYCYAFGCWCTHLYEQAVVWPLPNKTCN
For B1, the “SPR binding to VSD II paddle peptide” value in assay [1] is “no RUs could be detected”. The “SPR binding to VSD IV paddle peptide” value in assay [2] (100 nM toxin, 500 fmol peptide) was “no RUs could be detected”. Moreover, in the assay with rNav1.2a (100 nM toxin), the “effect on WT rNav1.2a gating” value is “clearly influences WT rNav1.2a gating”.

B2: AaHII: Nav channel-selective α-scorpion toxin from Androctonus australis hector; model toxin (protein)
chain: VKDGYIVDDVNCTYFCGRNAYCNEECTKLKGESGYCQWASPYGNACYCYKLPDHVRTKGPGRCH
Consider B2, for which, in assay [3] (100 nM toxin), the “inhibition of the double mutant channel” value is “strongly inhibits”. Also, in assay [3] (read-out: apparent KD), the Kd is 193 ± 42 nM. Besides, the “SPR binding to VSD II paddle peptide” value in assay [1] is “a response was not obtained”. Moreover, the “SPR effect on VSD II paddle motif” value in assay [1] (up to 20 μM toxin) is “not noticed”. The Kd in assay [4] is 1900 nM. Besides, in assay [2] (setting [7]), the “association rate ka1” value amounted to 2330 ± 910 M⁻¹ s⁻¹, the “association rate ka2” value came out at 38200 ± 4700 M⁻¹ s⁻¹, the “dissociation rate kd1” value was determined as 0.000979 ± 0.00014 s⁻¹ and the “dissociation rate kd2” value amounted to 0.0281 ± 0.0058 s⁻¹. In assay [2] (setting [8]), this molecule had an RUmax1 of 135 and an RUmax2 of 23. In assay [2] (setting [9]), the “high affinity KD1 (kd1/ka1)” value was 479 ± 241 nM and the “lower affinity KD2 (kd2/ka2)” value was determined as 747 ± 203 nM. Further, at rNav1.2a (WT rNav1.2a, read-out: affinity of the toxin for WT rNav1.2a), the Kd was around 5 nM. The Kd in assay [5] is 235 ± 24 nM. In assay [6], the Kd was 205 ± 23 nM.
